Drawing on publication PMC6509336, “Wnt5a is a TLR2/4-ligand that induces tolerance in human myeloid cells” (Communications Biology, 2019), this text covers Kd for 1 molecule.

Holding throughout (assay): SPR; Biacore 3000, CM5 chip; rhTLR2, rhTLR4/MD2 and rhTLR4 amine-coupled (4.0, 4.7, 4.0 kRU); Wnt5a or Wnt3a injected at 25-100 nM for 2 min at 30 ul/min in HBS-P (10 mM HEPES, 0.15 M NaCl, 0.005% P20, pH 7.4) with ZnCl2 and CaCl2; Req from a 1:1 fit plotted against concentration and fit to a one-site hyperbola (steady-state KD)
Holding throughout (details): both partners purified

For one experiment, the target named is T1, rhTLR4 (human, UniProt O00206 24-631).
T1 construct: toll-like receptor 4, recombinant human protein from R&D Systems; No catalogue number or construct limits are printed; also called rhTLR4-his; source: bought: R&D Systems

The next experiment concerns the target T2, rhTLR4/MD2 (human, UniProt O00206 24-631; Q9Y6Y9 19-160).
T2 construct: toll-like receptor 4 in the recombinant human TLR4/MD2 complex from R&D Systems; MD2 (lymphocyte antigen 96) in the recombinant human TLR4/MD2 complex from R&D Systems; Bought as a preformed complex; No catalogue number, tags or construct limits are printed; source: bought: R&D Systems

For a further experiment, the target named is T3, rhTLR2 (human, UniProt O60603 21-588).
T3 construct: toll-like receptor 2, recombinant human protein from R&D Systems; No catalogue number, tags or construct limits are printed; source: bought: R&D Systems

In general, Kd refers to the equilibrium constant for the complex coming apart. A high value points to lower affinity.

T3 sequence (O60603 21-588): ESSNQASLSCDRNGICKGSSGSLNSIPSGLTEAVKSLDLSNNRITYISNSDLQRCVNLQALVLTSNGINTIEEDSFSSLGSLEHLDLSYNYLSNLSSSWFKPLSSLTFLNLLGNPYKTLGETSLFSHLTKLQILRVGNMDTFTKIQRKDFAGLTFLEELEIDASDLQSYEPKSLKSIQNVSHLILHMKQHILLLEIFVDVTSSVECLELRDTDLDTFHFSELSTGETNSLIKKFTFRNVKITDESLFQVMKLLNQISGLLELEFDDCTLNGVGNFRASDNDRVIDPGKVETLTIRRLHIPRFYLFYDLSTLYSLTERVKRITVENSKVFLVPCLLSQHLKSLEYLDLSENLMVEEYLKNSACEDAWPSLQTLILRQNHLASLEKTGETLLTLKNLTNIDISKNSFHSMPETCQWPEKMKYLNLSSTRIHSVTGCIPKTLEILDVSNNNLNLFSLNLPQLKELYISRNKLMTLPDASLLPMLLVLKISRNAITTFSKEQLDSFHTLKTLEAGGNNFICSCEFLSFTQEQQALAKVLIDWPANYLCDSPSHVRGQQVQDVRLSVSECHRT
T2 sequence (O00206 24-631, chain 1 of 2): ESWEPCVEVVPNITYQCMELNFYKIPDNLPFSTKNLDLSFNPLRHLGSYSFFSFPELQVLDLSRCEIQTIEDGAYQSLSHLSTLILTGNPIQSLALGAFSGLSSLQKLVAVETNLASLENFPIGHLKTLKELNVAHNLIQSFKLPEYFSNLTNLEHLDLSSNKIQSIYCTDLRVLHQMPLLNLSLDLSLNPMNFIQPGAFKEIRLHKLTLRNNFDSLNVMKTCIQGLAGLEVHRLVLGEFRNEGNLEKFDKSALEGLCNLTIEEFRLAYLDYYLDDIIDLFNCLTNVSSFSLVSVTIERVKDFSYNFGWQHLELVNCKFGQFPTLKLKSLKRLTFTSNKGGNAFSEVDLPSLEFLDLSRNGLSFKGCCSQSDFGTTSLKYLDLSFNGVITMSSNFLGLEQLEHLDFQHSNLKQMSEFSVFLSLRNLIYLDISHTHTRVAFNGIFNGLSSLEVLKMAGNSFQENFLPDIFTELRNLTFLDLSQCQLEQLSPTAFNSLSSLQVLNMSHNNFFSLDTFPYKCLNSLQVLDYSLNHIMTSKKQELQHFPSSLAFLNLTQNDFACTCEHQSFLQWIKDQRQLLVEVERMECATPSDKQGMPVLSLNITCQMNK
T2 sequence (Q9Y6Y9 19-160, chain 2 of 2): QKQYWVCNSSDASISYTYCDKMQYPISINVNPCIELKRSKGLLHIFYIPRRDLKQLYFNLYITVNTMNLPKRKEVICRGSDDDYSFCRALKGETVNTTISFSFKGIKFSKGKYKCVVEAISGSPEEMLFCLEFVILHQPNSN
T1 sequence (O00206 24-631): as the sequence (O00206 24-631, chain 1 of 2) above

B1: recombinant human/mouse (rh/m)Wnt5a (ligand, UniProt P41221 62-380, looked up)
chain: IIGAQPLCSQLAGLSQGQKKLCHLYQDHMQYIGEGAKTGIKECQYQFRHRRWNCSTVDNTSVFGRVMQIGSRETAFTYAVSAAGVVNAMSRACREGELSTCGCSRAARPKDLPRDWLWGGCGDNIDYGYRFAKEFVDARERERIHAKGSYESARILMNLHNNEAGRRTVYNLADVACKCHGVSGSCSLKTCWLQLADFRKVGDALKEKYDSAAAMRLNSRGKLVQVNSRFNSPTTQDLVYIDPSPDYCVRNESTGSLGTQGRLCNKTSEGMDGCELMCCGRGYDQFKTVQTERCHCKFHWCCYVKCKKCTEIVDQFVCK
notes: Wnt5a, recombinant human/mouse protein from R&D Systems, molecular weight 38,000; Lyophilized from PBS, EDTA and CHAPS; No catalogue number is printed; also called rWnt5a; source: bought: R&D Systems
With B1, the Kd was found to be 44.5 nM with rhTLR4, 35.5 nM with rhTLR4/MD2 and 26.5 nM with rhTLR2.
